According to PMC2761027:

What was measured:
purified protein = substrate: Nc1ncnc2c1ncn2[C@@H]1O[C@H](COP(=O)(O)OP(=O)(O)OP(=O)(O)O)[C@@H](O)[C@H]1O; assay: purified protein; format: biochemical, Mycolicibacterium smegmatis; conditions: salmon sperm DNA, 5 mM MgCl2, pH 8.0, 37 °C, labelled compound
[1] = substrate: O=c1ccn([C@@H]2O[C@H](COP(=O)(O)OP(=O)(O)OP(=O)(O)O)[C@@H](O)[C@H]2O)c(=O)[nH]1; assay: labelled UDP formation from labelled UTP, TLC, Michaelis-Menten fit; format: biochemical, Mycolicibacterium smegmatis; conditions: salmon sperm DNA, 5 mM MgCl2, pH 8.0, 37 °C, labelled compound

Row | Protein | Km (purified protein) [µM] | kcat (purified protein) [s⁻¹] | Km [1] [µM] | kcat [1] [s⁻¹]
1 | UvrD1 (Mycolicibacterium smegmatis MC2 155) (protein) MTSPSATPFAAETDQLLDGLNPQQRQAVLHEGSPLLIVAGAGSGKTAVLTRRIAYLLAEREVGVGQVLAITFTNKAAAEMRERVVQLVGPRAKAMWVSTFHSTCVRILRNQASLLPGLNSNFSIYDSDDSRRLLMMIGKDLGLDTKRYSPRLLANGISNLKNELIGPEQAAAEASEASDEMATVIAQVYGEYQRRLRAANALDFDDLIGETVAVLQAFPQIAQYYRRRFRHILVDEYQDTNHAQYVLVRELVGHHLEDHDGVPPSELCVVGDADQSIYAFRGATIRNIEDFERDFPDATTILLEQNYRSTQTILNAANAVIARNTGRREKRLWTDAGQGELIVGYVADNEHDEARFVADEIDALTDRHGYNYNDIAVFYRTNNSSRALEEVFIRAGIPYKVVGGVRFYERREIRDIVAYLRVLDNPGDSVSMRRILNTPRRGIGDRAEACVAVYAENTGVSFNEALQAAAEGRVPMLNTRSEKCIASFVQMLDDLRGKLDEELGDLVEAVLERTGYRRELEASSDPQDLARLDNLNELVSVAHEFSIDLANAQALAEESDEPVDEDIPDTGVLAQFLERVSLVADADDIPEEGSGVVTMMTLHTAKGLEFPAVFVTGWEDGMFPHMRALGDPNELSEERRLAYVGITRARQRLYLSRAKVRSSWGQPMLNPESRFLREIPQELIDWRRIEAPTPAYAAPGRMSSSGGGGIGFGSPRPSPNRPGGGRNKPLMVLQPGDRVTHDKYGLGRVEEVAGTGESAMSLIDFGSAGRVKLMHNHAPLQKL | 260 ± 40 | 265 ± 22 |  | 
2 | UvrD1 (Mycolicibacterium smegmatis MC2 155; Q24A) (protein) MTSPSATPFAAETDQLLDGLNPQARQAVLHEGSPLLIVAGAGSGKTAVLTRRIAYLLAEREVGVGQVLAITFTNKAAAEMRERVVQLVGPRAKAMWVSTFHSTCVRILRNQASLLPGLNSNFSIYDSDDSRRLLMMIGKDLGLDTKRYSPRLLANGISNLKNELIGPEQAAAEASEASDEMATVIAQVYGEYQRRLRAANALDFDDLIGETVAVLQAFPQIAQYYRRRFRHILVDEYQDTNHAQYVLVRELVGHHLEDHDGVPPSELCVVGDADQSIYAFRGATIRNIEDFERDFPDATTILLEQNYRSTQTILNAANAVIARNTGRREKRLWTDAGQGELIVGYVADNEHDEARFVADEIDALTDRHGYNYNDIAVFYRTNNSSRALEEVFIRAGIPYKVVGGVRFYERREIRDIVAYLRVLDNPGDSVSMRRILNTPRRGIGDRAEACVAVYAENTGVSFNEALQAAAEGRVPMLNTRSEKCIASFVQMLDDLRGKLDEELGDLVEAVLERTGYRRELEASSDPQDLARLDNLNELVSVAHEFSIDLANAQALAEESDEPVDEDIPDTGVLAQFLERVSLVADADDIPEEGSGVVTMMTLHTAKGLEFPAVFVTGWEDGMFPHMRALGDPNELSEERRLAYVGITRARQRLYLSRAKVRSSWGQPMLNPESRFLREIPQELIDWRRIEAPTPAYAAPGRMSSSGGGGIGFGSPRPSPNRPGGGRNKPLMVLQPGDRVTHDKYGLGRVEEVAGTGESAMSLIDFGSAGRVKLMHNHAPLQKL | 690 ± 50 | 95 ± 3 | 1210 ± 130 | 86 ± 5
